Assay results from article PMC9775220, “Distal Mutations Shape Substrate-Binding Sites during Evolution of a Metallo-Oxidase into a Laccase” (ACS Catalysis, 2022).

Substrate: CCn1c(=NN=c2sc3cc(S(=O)(=O)O)ccc3n2CC)sc2cc(S(=O)(=O)O)ccc21
Test: purified protein
Type: biochemical, Aquifex aeolicus
Conditions: pH 4, 40 °C
[1] = 2F4-loop 5 (Met-loop cut to five residues)

B1: McoA (wild type) (Aquifex aeolicus VF5; F55S/I199T/I441L/M449T/P58S/R471G) (protein)
chain: LSKQSLNIPGYSLFSDGQRVSITAKWTTLEVIPGKSTDMLVYEIDNEYNPVIFLRKGQTFSADFVNNSGEDSIIHWHGFRAPWKSDGHPYYAVKDGETYSYPDFTIIDRSGTYFYHPHPHGRTGYQVYYGLAGMIIIEDEDEDNLKQALDLEYGVTDIPLIIQDKTFDSSGQLVYNPMGHMGFWGDTILVNLTPNPYMDVERKIYRFRILNGSNARPYRLALLRGNQRMRFWVIGVEGGLLDTPKEVNEILVAPGERIDILVDFRDASVNDVIKLYNFPHNLIGMGMIGMRMGMGMERGMGMGNGMNMDMGMADNSEFEVMEFRVTKDSAYDKSIPQRLSEVTPINTDGAQVQRITLGMRRMVFTINGETWEDGYANPQDINNPKVLFEQNNGDVVILEYVNNTGTYHPMHIHGFQFQVLERSLGPLGATDLGWKDTVIVAPMETVRIAVDMSHPYNEHQIYLLHCHILEHHDEGMMVNYRVNA
notes: 43-residue N-terminal Tat signal peptide removed in 2B3wsp and the shuffling parents (stated for wild type); expressed in E. coli Tuner delta-cueO from pET-21a(+); purified, Cu-loaded in vitro; monomer
Evolved variant 2F4
  Km: 1500 ± 400 µM
  kcat: 273 ± 9 s⁻¹

B2: McoA (wild type) (Aquifex aeolicus VF5; F55S/I199T/I441L/P58S/R471G) (protein)
chain: LSKQSLNIPGYSLFSDGQRVSITAKWTTLEVIPGKSTDMLVYEIDNEYNPVIFLRKGQTFSADFVNNSGEDSIIHWHGFRAPWKSDGHPYYAVKDGETYSYPDFTIIDRSGTYFYHPHPHGRTGYQVYYGLAGMIIIEDEDEDNLKQALDLEYGVTDIPLIIQDKTFDSSGQLVYNPMGHMGFWGDTILVNLTPNPYMDVERKIYRFRILNGSNARPYRLALLRGNQRMRFWVIGVEGGLLDTPKEVNEILVAPGERIDILVDFRDASVNDVIKLYNFPHNLIGMGMIGMRMGMGMERGMGMGNGMNMDMGMADNSEFEVMEFRVTKDSAYDKSIPQRLSEVTPINTDGAQVQRITLGMRRMVFTINGETWEDGYANPQDINNPKVLFEQNNGDVVILEYVNNTGMYHPMHIHGFQFQVLERSLGPLGATDLGWKDTVIVAPMETVRIAVDMSHPYNEHQIYLLHCHILEHHDEGMMVNYRVNA
notes: as for B1
Reversion T449M in 2F4
  Km: 3100 ± 900 µM
  kcat: 99 ± 8 s⁻¹

B3: McoA (wild type) (Aquifex aeolicus VF5; P58S) (protein)
chain: LSKQSLNIPGYFLFSDGQRVSITAKWTTLEVIPGKSTDMLVYEIDNEYNPVIFLRKGQTFSADFVNNSGEDSIIHWHGFRAPWKSDGHPYYAVKDGETYSYPDFTIIDRSGTYFYHPHPHGRTGYQVYYGLAGMIIIEDEDEDNLKQALDLEYGVIDIPLIIQDKTFDSSGQLVYNPMGHMGFWGDTILVNLTPNPYMDVERKIYRFRILNGSNARPYRLALLRGNQRMRFWVIGVEGGLLDTPKEVNEILVAPGERIDILVDFRDASVNDVIKLYNFPHNLIGMGMIGMRMGMGMERGMGMGNGMNMDMGMADNSEFEVMEFRVTKDSAYDKSIPQRLSEVTPINTDGAQVQRITLGMRRMVFTINGETWEDGYANPQDINNPKVLFEQNNGDVVIIEYVNNTGMYHPMHIHGFQFQVLERSLGPLRATDLGWKDTVIVAPMETVRIAVDMSHPYNEHQIYLLHCHILEHHDEGMMVNYRVNA
notes: as for B1
wild-type background
  Km: 2500 ± 200 µM
  kcat: 75 ± 3 s⁻¹

B4: McoA (wild type) (Aquifex aeolicus VF5; F55S/I199T/I441L/M449T/P58S) (protein)
chain: LSKQSLNIPGYSLFSDGQRVSITAKWTTLEVIPGKSTDMLVYEIDNEYNPVIFLRKGQTFSADFVNNSGEDSIIHWHGFRAPWKSDGHPYYAVKDGETYSYPDFTIIDRSGTYFYHPHPHGRTGYQVYYGLAGMIIIEDEDEDNLKQALDLEYGVTDIPLIIQDKTFDSSGQLVYNPMGHMGFWGDTILVNLTPNPYMDVERKIYRFRILNGSNARPYRLALLRGNQRMRFWVIGVEGGLLDTPKEVNEILVAPGERIDILVDFRDASVNDVIKLYNFPHNLIGMGMIGMRMGMGMERGMGMGNGMNMDMGMADNSEFEVMEFRVTKDSAYDKSIPQRLSEVTPINTDGAQVQRITLGMRRMVFTINGETWEDGYANPQDINNPKVLFEQNNGDVVILEYVNNTGTYHPMHIHGFQFQVLERSLGPLRATDLGWKDTVIVAPMETVRIAVDMSHPYNEHQIYLLHCHILEHHDEGMMVNYRVNA
notes: as for B1
Reversion G471R in 2F4
  Km: 6000 ± 1000 µM
  kcat: 235 ± 9 s⁻¹

B5: McoA (wild type) (Aquifex aeolicus VF5; I199T) (protein)
chain: LSKQSLNIPGYFLFPDGQRVSITAKWTTLEVIPGKSTDMLVYEIDNEYNPVIFLRKGQTFSADFVNNSGEDSIIHWHGFRAPWKSDGHPYYAVKDGETYSYPDFTIIDRSGTYFYHPHPHGRTGYQVYYGLAGMIIIEDEDEDNLKQALDLEYGVTDIPLIIQDKTFDSSGQLVYNPMGHMGFWGDTILVNLTPNPYMDVERKIYRFRILNGSNARPYRLALLRGNQRMRFWVIGVEGGLLDTPKEVNEILVAPGERIDILVDFRDASVNDVIKLYNFPHNLIGMGMIGMRMGMGMERGMGMGNGMNMDMGMADNSEFEVMEFRVTKDSAYDKSIPQRLSEVTPINTDGAQVQRITLGMRRMVFTINGETWEDGYANPQDINNPKVLFEQNNGDVVIIEYVNNTGMYHPMHIHGFQFQVLERSLGPLRATDLGWKDTVIVAPMETVRIAVDMSHPYNEHQIYLLHCHILEHHDEGMMVNYRVNA
notes: as for B1
wild-type background
  Km: 900 ± 200 µM
  kcat: 27 ± 5 s⁻¹

B6: McoA (wild type) (Aquifex aeolicus VF5) (protein)
chain: LSKQSLNIPGYFLFPDGQRVSITAKWTTLEVIPGKSTDMLVYEIDNEYNPVIFLRKGQTFSADFVNNSGEDSIIHWHGFRAPWKSDGHPYYAVKDGETYSYPDFTIIDRSGTYFYHPHPHGRTGYQVYYGLAGMIIIEDEDEDNLKQALDLEYGVIDIPLIIQDKTFDSSGQLVYNPMGHMGFWGDTILVNLTPNPYMDVERKIYRFRILNGSNARPYRLALLRGNQRMRFWVIGVEGGLLDTPKEVNEILVAPGERIDILVDFRDASVNDVIKLYNFPHNLIGMGMIGMRMGMGMERGMGMGNGMNMDMGMADNSEFEVMEFRVTKDSAYDKSIPQRLSEVTPINTDGAQVQRITLGMRRMVFTINGETWEDGYANPQDINNPKVLFEQNNGDVVIIEYVNNTGMYHPMHIHGFQFQVLERSLGPLRATDLGWKDTVIVAPMETVRIAVDMSHPYNEHQIYLLHCHILEHHDEGMMVNYRVNA
notes: as for B1
  Km: 1300 ± 200 µM
  kcat: 25 ± 3 s⁻¹

B7: McoA (wild type) (Aquifex aeolicus VF5; R471G) (protein)
chain: LSKQSLNIPGYFLFPDGQRVSITAKWTTLEVIPGKSTDMLVYEIDNEYNPVIFLRKGQTFSADFVNNSGEDSIIHWHGFRAPWKSDGHPYYAVKDGETYSYPDFTIIDRSGTYFYHPHPHGRTGYQVYYGLAGMIIIEDEDEDNLKQALDLEYGVIDIPLIIQDKTFDSSGQLVYNPMGHMGFWGDTILVNLTPNPYMDVERKIYRFRILNGSNARPYRLALLRGNQRMRFWVIGVEGGLLDTPKEVNEILVAPGERIDILVDFRDASVNDVIKLYNFPHNLIGMGMIGMRMGMGMERGMGMGNGMNMDMGMADNSEFEVMEFRVTKDSAYDKSIPQRLSEVTPINTDGAQVQRITLGMRRMVFTINGETWEDGYANPQDINNPKVLFEQNNGDVVIIEYVNNTGMYHPMHIHGFQFQVLERSLGPLGATDLGWKDTVIVAPMETVRIAVDMSHPYNEHQIYLLHCHILEHHDEGMMVNYRVNA
notes: as for B1
wild-type background
  Km: 2300 ± 200 µM
  kcat: 98 ± 4 s⁻¹

B8: McoA (wild type) (Aquifex aeolicus VF5; M449T) (protein)
chain: LSKQSLNIPGYFLFPDGQRVSITAKWTTLEVIPGKSTDMLVYEIDNEYNPVIFLRKGQTFSADFVNNSGEDSIIHWHGFRAPWKSDGHPYYAVKDGETYSYPDFTIIDRSGTYFYHPHPHGRTGYQVYYGLAGMIIIEDEDEDNLKQALDLEYGVIDIPLIIQDKTFDSSGQLVYNPMGHMGFWGDTILVNLTPNPYMDVERKIYRFRILNGSNARPYRLALLRGNQRMRFWVIGVEGGLLDTPKEVNEILVAPGERIDILVDFRDASVNDVIKLYNFPHNLIGMGMIGMRMGMGMERGMGMGNGMNMDMGMADNSEFEVMEFRVTKDSAYDKSIPQRLSEVTPINTDGAQVQRITLGMRRMVFTINGETWEDGYANPQDINNPKVLFEQNNGDVVIIEYVNNTGTYHPMHIHGFQFQVLERSLGPLRATDLGWKDTVIVAPMETVRIAVDMSHPYNEHQIYLLHCHILEHHDEGMMVNYRVNA
notes: as for B1
wild-type background
  Km: 1000 ± 100 µM
  kcat: 27 ± 1 s⁻¹

B9: McoA (wild type) (Aquifex aeolicus VF5; I441L) (protein)
chain: LSKQSLNIPGYFLFPDGQRVSITAKWTTLEVIPGKSTDMLVYEIDNEYNPVIFLRKGQTFSADFVNNSGEDSIIHWHGFRAPWKSDGHPYYAVKDGETYSYPDFTIIDRSGTYFYHPHPHGRTGYQVYYGLAGMIIIEDEDEDNLKQALDLEYGVIDIPLIIQDKTFDSSGQLVYNPMGHMGFWGDTILVNLTPNPYMDVERKIYRFRILNGSNARPYRLALLRGNQRMRFWVIGVEGGLLDTPKEVNEILVAPGERIDILVDFRDASVNDVIKLYNFPHNLIGMGMIGMRMGMGMERGMGMGNGMNMDMGMADNSEFEVMEFRVTKDSAYDKSIPQRLSEVTPINTDGAQVQRITLGMRRMVFTINGETWEDGYANPQDINNPKVLFEQNNGDVVILEYVNNTGMYHPMHIHGFQFQVLERSLGPLRATDLGWKDTVIVAPMETVRIAVDMSHPYNEHQIYLLHCHILEHHDEGMMVNYRVNA
notes: as for B1
wild-type background
  Km: 1500 ± 200 µM
  kcat: 79 ± 5 s⁻¹

B10: McoA (wild type) (Aquifex aeolicus VF5; F55S) (protein)
chain: LSKQSLNIPGYSLFPDGQRVSITAKWTTLEVIPGKSTDMLVYEIDNEYNPVIFLRKGQTFSADFVNNSGEDSIIHWHGFRAPWKSDGHPYYAVKDGETYSYPDFTIIDRSGTYFYHPHPHGRTGYQVYYGLAGMIIIEDEDEDNLKQALDLEYGVIDIPLIIQDKTFDSSGQLVYNPMGHMGFWGDTILVNLTPNPYMDVERKIYRFRILNGSNARPYRLALLRGNQRMRFWVIGVEGGLLDTPKEVNEILVAPGERIDILVDFRDASVNDVIKLYNFPHNLIGMGMIGMRMGMGMERGMGMGNGMNMDMGMADNSEFEVMEFRVTKDSAYDKSIPQRLSEVTPINTDGAQVQRITLGMRRMVFTINGETWEDGYANPQDINNPKVLFEQNNGDVVIIEYVNNTGMYHPMHIHGFQFQVLERSLGPLRATDLGWKDTVIVAPMETVRIAVDMSHPYNEHQIYLLHCHILEHHDEGMMVNYRVNA
notes: as for B1
wild-type background
  Km: 2400 ± 400 µM
  kcat: 67 ± 4 s⁻¹

B11: McoA (wild type) (Aquifex aeolicus VF5; DEL329-352/F55S/I199T/I441L/M449T/P58S/R471G) (protein)
chain: LSKQSLNIPGYSLFSDGQRVSITAKWTTLEVIPGKSTDMLVYEIDNEYNPVIFLRKGQTFSADFVNNSGEDSIIHWHGFRAPWKSDGHPYYAVKDGETYSYPDFTIIDRSGTYFYHPHPHGRTGYQVYYGLAGMIIIEDEDEDNLKQALDLEYGVTDIPLIIQDKTFDSSGQLVYNPMGHMGFWGDTILVNLTPNPYMDVERKIYRFRILNGSNARPYRLALLRGNQRMRFWVIGVEGGLLDTPKEVNEILVAPGERIDILVDFRDASVNDVIKLYNFPHNLIGMMGMADNSEFEVMEFRVTKDSAYDKSIPQRLSEVTPINTDGAQVQRITLGMRRMVFTINGETWEDGYANPQDINNPKVLFEQNNGDVVILEYVNNTGTYHPMHIHGFQFQVLERSLGPLGATDLGWKDTVIVAPMETVRIAVDMSHPYNEHQIYLLHCHILEHHDEGMMVNYRVNA
notes: as for B1
[1]
  Km: 3800 ± 600 µM
  kcat: 133 ± 20 s⁻¹
